Measured values reported in the supplement of paper PMC10065799, “High-throughput profiling of sequence recognition by tyrosine kinases and SH2 domains using bacterial peptide display” (eLife, 2023).

Assays:
AncSZ = assay: phosphorylation enrichment, bacterial display (enrichment ratio); higher = better substrate or ligand; peptides without Tyr show the background
EPHB1 = EPHB1 (UniProt P54762); assay: as above
EPHB2 = EPHB2 (UniProt P29323); assay: as above
FGFR1 = FGFR1 (UniProt P11362); assay: as above
FGFR3 = FGFR3 (UniProt P22607); assay: as above
Fer (mouse) = assay: as above
Fes = Fes (UniProt P07332); assay: as above
Fyn = Fyn (UniProt P06241); assay: as above
Fyn, sequence (P06241 whole entry, looked up): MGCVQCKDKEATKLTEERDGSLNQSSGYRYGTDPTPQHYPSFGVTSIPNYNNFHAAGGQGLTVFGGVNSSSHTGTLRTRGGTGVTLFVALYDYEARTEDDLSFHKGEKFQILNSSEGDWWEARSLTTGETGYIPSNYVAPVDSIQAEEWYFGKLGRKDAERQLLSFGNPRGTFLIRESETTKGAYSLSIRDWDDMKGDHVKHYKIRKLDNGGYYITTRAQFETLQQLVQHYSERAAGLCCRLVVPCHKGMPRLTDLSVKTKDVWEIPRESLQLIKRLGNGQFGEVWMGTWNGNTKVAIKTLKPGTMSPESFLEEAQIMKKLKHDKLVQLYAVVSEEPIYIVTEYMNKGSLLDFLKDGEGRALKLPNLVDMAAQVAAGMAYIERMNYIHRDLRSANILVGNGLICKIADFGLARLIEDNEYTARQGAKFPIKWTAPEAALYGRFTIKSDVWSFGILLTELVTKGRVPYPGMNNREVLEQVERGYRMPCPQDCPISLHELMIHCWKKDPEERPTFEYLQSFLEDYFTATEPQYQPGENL

Hck = Hck (UniProt P08631); assay: as above
Hck, sequence (P08631 whole entry, looked up): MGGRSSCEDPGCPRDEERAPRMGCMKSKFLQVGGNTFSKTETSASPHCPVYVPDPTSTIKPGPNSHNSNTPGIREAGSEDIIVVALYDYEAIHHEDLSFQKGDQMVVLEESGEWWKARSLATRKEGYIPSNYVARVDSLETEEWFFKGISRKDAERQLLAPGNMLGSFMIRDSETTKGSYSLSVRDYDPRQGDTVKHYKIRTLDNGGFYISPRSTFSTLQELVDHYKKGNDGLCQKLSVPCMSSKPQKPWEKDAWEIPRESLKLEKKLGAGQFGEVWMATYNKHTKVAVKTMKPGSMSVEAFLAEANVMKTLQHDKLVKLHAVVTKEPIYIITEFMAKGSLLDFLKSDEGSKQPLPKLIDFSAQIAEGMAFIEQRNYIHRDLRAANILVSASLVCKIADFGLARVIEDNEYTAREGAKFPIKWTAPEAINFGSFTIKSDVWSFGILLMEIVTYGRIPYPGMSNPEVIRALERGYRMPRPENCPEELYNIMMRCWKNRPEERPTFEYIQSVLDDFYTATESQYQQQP

Jak2 = Jak2 (UniProt O60674); assay: as above
Jak2, sequence (O60674 whole entry, looked up): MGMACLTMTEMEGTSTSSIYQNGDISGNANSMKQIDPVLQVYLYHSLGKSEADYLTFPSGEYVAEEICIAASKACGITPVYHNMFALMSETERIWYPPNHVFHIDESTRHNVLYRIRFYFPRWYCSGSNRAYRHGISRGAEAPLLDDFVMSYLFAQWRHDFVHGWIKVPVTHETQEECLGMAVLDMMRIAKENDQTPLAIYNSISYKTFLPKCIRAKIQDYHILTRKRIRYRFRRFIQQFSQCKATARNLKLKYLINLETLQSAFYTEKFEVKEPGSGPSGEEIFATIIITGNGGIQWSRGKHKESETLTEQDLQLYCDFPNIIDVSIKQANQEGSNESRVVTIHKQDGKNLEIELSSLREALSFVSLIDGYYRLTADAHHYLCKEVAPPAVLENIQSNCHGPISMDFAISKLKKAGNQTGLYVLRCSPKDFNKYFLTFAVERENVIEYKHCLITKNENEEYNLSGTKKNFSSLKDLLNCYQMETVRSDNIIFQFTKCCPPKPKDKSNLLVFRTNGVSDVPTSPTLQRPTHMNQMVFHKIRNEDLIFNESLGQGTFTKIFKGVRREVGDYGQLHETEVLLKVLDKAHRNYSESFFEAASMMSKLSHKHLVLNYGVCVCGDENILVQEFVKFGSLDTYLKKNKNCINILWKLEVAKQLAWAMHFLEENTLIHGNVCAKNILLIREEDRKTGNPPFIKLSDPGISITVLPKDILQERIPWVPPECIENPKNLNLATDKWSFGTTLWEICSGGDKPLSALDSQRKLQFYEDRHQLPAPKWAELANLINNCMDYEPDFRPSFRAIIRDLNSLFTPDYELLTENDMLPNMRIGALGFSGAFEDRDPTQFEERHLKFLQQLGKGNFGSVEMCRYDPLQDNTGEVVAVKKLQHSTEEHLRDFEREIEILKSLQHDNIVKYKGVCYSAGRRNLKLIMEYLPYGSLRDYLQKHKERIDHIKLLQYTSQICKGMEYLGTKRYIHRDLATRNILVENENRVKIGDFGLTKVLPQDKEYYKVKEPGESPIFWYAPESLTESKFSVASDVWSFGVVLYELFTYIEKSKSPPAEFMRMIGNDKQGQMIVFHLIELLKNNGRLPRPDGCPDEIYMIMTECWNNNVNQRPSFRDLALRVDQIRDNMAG

MERTK = MERTK (UniProt Q12866); assay: as above
MERTK, sequence (Q12866 whole entry, looked up): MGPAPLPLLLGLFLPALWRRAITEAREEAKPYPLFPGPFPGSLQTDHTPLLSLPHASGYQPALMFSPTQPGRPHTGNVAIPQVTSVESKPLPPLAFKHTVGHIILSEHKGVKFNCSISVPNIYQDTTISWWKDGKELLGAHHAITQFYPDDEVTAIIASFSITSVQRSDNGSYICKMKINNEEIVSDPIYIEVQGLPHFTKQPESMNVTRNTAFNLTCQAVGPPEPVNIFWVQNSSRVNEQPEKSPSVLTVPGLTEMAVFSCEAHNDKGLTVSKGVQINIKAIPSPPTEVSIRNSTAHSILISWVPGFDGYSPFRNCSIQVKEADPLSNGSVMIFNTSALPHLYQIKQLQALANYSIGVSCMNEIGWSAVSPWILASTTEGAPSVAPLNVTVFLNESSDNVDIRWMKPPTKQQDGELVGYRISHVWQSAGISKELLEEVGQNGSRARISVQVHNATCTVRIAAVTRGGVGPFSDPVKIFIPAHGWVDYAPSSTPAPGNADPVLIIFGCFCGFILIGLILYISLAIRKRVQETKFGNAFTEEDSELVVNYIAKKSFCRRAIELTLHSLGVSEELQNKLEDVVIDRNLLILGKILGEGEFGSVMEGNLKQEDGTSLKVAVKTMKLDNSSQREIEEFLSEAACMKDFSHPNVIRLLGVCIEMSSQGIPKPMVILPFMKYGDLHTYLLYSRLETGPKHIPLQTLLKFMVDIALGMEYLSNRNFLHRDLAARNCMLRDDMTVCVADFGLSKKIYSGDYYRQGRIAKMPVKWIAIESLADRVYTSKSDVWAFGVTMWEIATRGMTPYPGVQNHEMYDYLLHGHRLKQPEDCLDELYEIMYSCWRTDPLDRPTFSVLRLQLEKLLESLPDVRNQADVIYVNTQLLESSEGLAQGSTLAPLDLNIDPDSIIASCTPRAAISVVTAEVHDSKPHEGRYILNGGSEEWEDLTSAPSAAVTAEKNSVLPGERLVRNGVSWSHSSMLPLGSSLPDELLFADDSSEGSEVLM

c-Abl (mouse) = assay: as above
c-Src = assay: as above
Grb2 SH2 = Grb2 SH2 (UniProt P62993); assay: SH2 binding enrichment of the phosphorylated peptide, bacterial display (enrichment ratio); higher = better substrate or ligand; peptides without Tyr show the background
Grb2 SH2, sequence (P62993 whole entry, looked up): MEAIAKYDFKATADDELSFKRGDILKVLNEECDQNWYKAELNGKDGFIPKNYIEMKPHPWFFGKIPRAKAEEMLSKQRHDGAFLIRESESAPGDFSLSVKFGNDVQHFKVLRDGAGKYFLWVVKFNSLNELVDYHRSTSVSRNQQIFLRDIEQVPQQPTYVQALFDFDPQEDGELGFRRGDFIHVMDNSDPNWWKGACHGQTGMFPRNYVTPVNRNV

SHP2-C SH2 = assay: as above
c-Src SH2 = assay: as above
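For SH2 binding enrichment of the phosphorylated peptide, bacterial display in this document: peptide library displayed on the E. coli surface as eCPX fusions, selected cells deep-sequenced, score is each peptide's frequency after selection divided by its frequency in the input.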
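For phosphorylation enrichment, bacterial display in this document: 11-residue human phosphosite peptides and single-mutation variants displayed on the E. coli surface, counted by deep sequencing, each peptide's frequency after selection divided by its frequency in the unselected input library; frequency after pTyr selection over input frequency; kinase dosed for 20-30% of maximal phosphorylation in three min.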

EPHB2, sequence (P29323 whole entry, looked up): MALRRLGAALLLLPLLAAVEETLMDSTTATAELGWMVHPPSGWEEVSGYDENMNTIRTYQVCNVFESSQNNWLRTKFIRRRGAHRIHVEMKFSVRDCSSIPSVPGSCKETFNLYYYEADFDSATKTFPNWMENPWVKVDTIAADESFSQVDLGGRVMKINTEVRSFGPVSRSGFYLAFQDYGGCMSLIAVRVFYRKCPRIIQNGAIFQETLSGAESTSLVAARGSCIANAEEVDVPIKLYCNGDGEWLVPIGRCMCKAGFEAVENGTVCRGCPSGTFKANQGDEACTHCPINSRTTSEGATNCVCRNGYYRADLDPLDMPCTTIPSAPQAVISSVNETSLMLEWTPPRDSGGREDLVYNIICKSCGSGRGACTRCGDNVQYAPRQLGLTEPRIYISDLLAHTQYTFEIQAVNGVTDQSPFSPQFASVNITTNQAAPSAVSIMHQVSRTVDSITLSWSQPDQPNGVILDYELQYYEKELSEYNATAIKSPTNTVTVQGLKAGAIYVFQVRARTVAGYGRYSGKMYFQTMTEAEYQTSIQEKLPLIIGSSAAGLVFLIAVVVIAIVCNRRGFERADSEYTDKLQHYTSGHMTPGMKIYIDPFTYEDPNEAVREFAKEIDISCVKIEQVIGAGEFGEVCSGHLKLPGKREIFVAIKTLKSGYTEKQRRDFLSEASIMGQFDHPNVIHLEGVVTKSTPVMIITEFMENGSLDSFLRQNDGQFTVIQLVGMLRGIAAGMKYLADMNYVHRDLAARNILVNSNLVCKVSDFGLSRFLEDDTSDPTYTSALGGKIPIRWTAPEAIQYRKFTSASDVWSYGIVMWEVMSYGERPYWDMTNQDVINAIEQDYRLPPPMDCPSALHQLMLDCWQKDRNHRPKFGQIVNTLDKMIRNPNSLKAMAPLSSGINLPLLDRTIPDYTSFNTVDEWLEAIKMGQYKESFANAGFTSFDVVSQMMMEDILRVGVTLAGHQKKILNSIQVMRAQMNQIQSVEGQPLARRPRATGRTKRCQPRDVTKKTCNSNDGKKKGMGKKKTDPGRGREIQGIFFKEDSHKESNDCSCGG

Sequence | phosphorylation enrichment (AncSZ) | phosphorylation enrichment (EPHB1) | phosphorylation enrichment (EPHB2) | phosphorylation enrichment (FGFR1) | phosphorylation enrichment (FGFR3) | phosphorylation enrichment (Fer (mouse)) | phosphorylation enrichment (Fes) | phosphorylation enrichment (Fyn) | phosphorylation enrichment (Hck) | phosphorylation enrichment (Jak2) | phosphorylation enrichment (MERTK) | phosphorylation enrichment (c-Abl (mouse)) | phosphorylation enrichment (c-Src) | SH2 binding enrichment (Grb2 SH2) | SH2 binding enrichment (SHP2-C SH2) | SH2 binding enrichment (c-Src SH2)
QYQEKYKQVEQ [HCN4_Y531] | 1.44 | 0.908 | 0.721 | 1.17 | 1.3 | 0.576 | 1.12 | 0.821 | 0.579 | 0.858 | 0.375 | 0.493 | 0.491 | 0.958 | 0.971 | 0.743
IVKAFYVHARA [AIPL1_Y268_R270H_YF] | 1.04 | 0.492 | 0.621 | 0.479 | 0.825 | 0.559 | 1.18 | 0.585 | 0.488 | 0.955 | 0.601 | 0.718 | 0.41 | 1.36 | 1.53 | 0.781
TFEYRYLEDQD [CNOT3_Y746_R750Q] | 1.22 | 0.566 | 0.553 | 0.77 | 0.823 | 0.518 | 1.15 | 0.438 | 0.637 | 0.916 | 0.44 | 0.673 | 0.54 | 0.772 | 0.478 | 0.66
LKTNWYNNGKD [DNMT3B_Y404_C403W] | 1.54 | 0.468 | 0.688 | 0.664 | 1.05 | 0.644 | 1.44 | 0.544 | 1.01 | 1.18 | 0.736 | 1.62 | 0.838 | 1.17 | 1.12 | 0.464
QSSEGYDLGDR [KIAA1210_Y564_G565D] | 1.41 | 0.644 | 0.853 | 0.416 | 0.714 | 0.607 | 1.43 | 0.948 | 0.546 | 1.09 | 0.501 | 1.12 | 0.688 | 1.13 | 1.26 | 0.719
SLGKGYSDGGC [MC4R_Y35] | 0.636 | 0.456 | 0.473 | 0.576 | 0.585 | 0.399 | 0.773 | 0.47 | 0.427 | 0.719 | 0.392 | 0.603 | 0.387 | 0.763 | 0.678 | 0.632
QQMGTYGVRAA [ICAM2_Y260_R256Q] | 0.33 | 0.281 | 0.414 | 0.392 | 0.417 | 0.339 | 0.579 | 2.06 | 3.77 | 0.313 | 0.658 | 0.442 | 2.48 | 1.07 | 0.373 | 0.37
GPQGFYSNKLV [PTPN14_Y506_V505F] | 0.529 | 0.307 | 0.387 | 0.369 | 0.406 | 0.409 | 0.441 | 0.348 | 0.393 | 0.445 | 0.641 | 0.586 | 0.45 | 0.792 | 0.708 | 0.465
EWRSPYGLTPR [GRIN3B_Y601] | 0.569 | 0.413 | 0.473 | 0.403 | 0.442 | 0.434 | 0.636 | 0.657 | 0.474 | 0.459 | 0.484 | 0.486 | 1.28 | 1.3 | 0.766 | 0.645
SVTCTYSPALH [TP53_Y126_N131H] | 1.28 | 0.71 | 0.62 | 0.487 | 0.724 | 0.492 | 1.41 | 0.545 | 0.556 | 1.23 | 0.413 | 0.808 | 0.741 | 0.617 | 0.532 | 0.402
FSPFDYQPCLA [TNS1_Y798_YF] | 1.39 | 0.775 | 0.715 | 1.01 | 0.978 | 0.643 | 1.44 | 0.589 | 0.66 | 1.21 | 0.538 | 1.04 | 0.57 | 0.756 | 0.657 | 0.496
IGEGTSGVVFK [CDK2_Y15_Y15S_YF] | 0.66 | 0.418 | 0.457 | 0.339 | 0.561 | 0.382 | 0.878 | 0.365 | 0.449 | 0.582 | 0.409 | 0.501 | 0.405 | 0.844 | 0.786 | 0.515
GREEFYVHYVG [KAT8_Y90] | 1.16 | 0.583 | 0.67 | 0.711 | 1.02 | 0.428 | 1.16 | 0.518 | 0.563 | 1.02 | 0.422 | 0.788 | 0.486 | 0.81 | 2.83 | 0.644
CSKRFYQLTKL [AR_Y858_R855K] | 0.75 | 0.545 | 0.44 | 0.401 | 0.556 | 0.492 | 0.888 | 0.454 | 0.424 | 0.706 | 0.47 | 0.587 | 0.449 | 1.08 | 0.874 | 0.777
LPEHPYHSRPR [NDUFA8_Y142_N140H] | 1.97 | 0.861 | 1.57 | 1.02 | 2.71 | 1.03 | 3.08 | 2.04 | 1.9 | 0.823 | 1.17 | 0.828 | 1.27 | 0.958 | 0.538 | 0.704
FYDANCDGKEY [MAPRE2_Y162_Y162C] | 1.21 | 0.651 | 0.682 | 0.497 | 0.922 | 0.527 | 1.4 | 0.612 | 0.563 | 1.13 | 0.539 | 0.81 | 0.642 | 1.03 | 0.641 | 0.617
